Source: PMC3384689 (Biochemistry, 2012)

Assays:
SEC-MALS = target: the molecule itself; assay: SEC-MALS
full-length FliG = assay: Size-exclusion chromatography / light scattering, full-length FliG; format: physicochemical, T. maritima; conditions: SEC / static light scattering / refractive index; ~1 mg/mL, 25 mM Tris, 200 mM NaCl, 0.5 mM EDTA, pH 7.4
[1] = target: synthetic FliF_(512–532) peptide of Thermotoga maritima FliF (Thermotoga maritima); assay: other fluorescence titration
[2] = target: synthetic FliF_(495–532) peptide of Thermotoga maritima FliF (Thermotoga maritima); assay: other fluorescence titration

Row | Molecule | stoichiometry N (SEC-MALS) | Calculated Mw of full-length FliG, absence of peptide (full-length FliG) | Oligomeric state of full-length FliG, absence of peptide (full-length FliG) | Kd [1] [nM] | stoichiometry N [2]
1 | full-length Thermotoga maritima FliG (FliGNMC) (natural protein, UniProt Q9WY63 1-335, looked up) MPEKKIDGRRKAAVLLVALGPEKAAQVMKHLDEETVEQLVVEIANIGRVTPEEKKQVLEEFLSLAKAKEMISEGGIEYAKKVLEKAFGPERARKIIERLTSSLQVKPFSFVRDTDPVQLVNFLQSEHPQTIAVVLSYLDPPVAAQILGALPEELQTEVLKRIALLERTSPEVVKEIERNLEKKISGFVSRTFSKVGGIDTAAEIMNNLDRTTEKKIMDKLVQENPELADEIRRRMFVFEDILKLDDRSIQLVLREVDTRDLALALKGASDELKEKIFKNMSKRAAALLKDELEYMGPVRLKDVEEAQQKIINIIRRLEEAGEIVIARGGGEELIM | 2 | – | – | – | –
2 | full-length FliG: full-length T. maritima FliGNMC, including a N-terminal 6X-His tag (protein, left off: 6X-His, N-terminal, state not stated) MPEKKIDGRRKAAVLLVALGPEKAAQVMKHLDEETVEQLVVEIANIGRVTPEEKKQVLEEFLSLAKAKEMISEGGIEYAKKVLEKAFGPERARKIIERLTSSLQVKPFSFVRDTDPVQLVNFLQSEHPQTIAVVLSYLDPPVAAQILGALPEELQTEVLKRIALLERTSPEVVKEIERNLEKKISGFVSRTFSKVGGIDTAAEIMNNLDRTTEKKIMDKLVQENPELADEIRRRMFVFEDILKLDDRSIQLVLREVDTRDLALALKGASDELKEKIFKNMSKRAAALLKDELEYMGPVRLKDVEEAQQKIINIIRRLEEAGEIVIARGGGEELIM | – | ≈ 79 kD | tight dimer | – | –
3 | Thermotoga maritima FliG N-terminal domain construct, residues 1–102 (FliGN) (domain or fragment, UniProt Q9WY63 1-102, looked up, 15N, 2H (and 13C) isotope labelling in the NMR experiments) MPEKKIDGRRKAAVLLVALGPEKAAQVMKHLDEETVEQLVVEIANIGRVTPEEKKQVLEEFLSLAKAKEMISEGGIEYAKKVLEKAFGPERARKIIERLTSS | 2 | – | – | 84 | 1
